# Tests used:
# mu receptor protein = mu receptor protein (Homo sapiens, UniProt P35372); experiment: GFET sensor response (Dirac voltage shift) of mu receptor protein-functionalized graphene transistors; conditions: 10 micrograms/mL, negative control of specificity, 15-25 devices
# Method: First, the graphene was functionalized through the use of a diazonium salt. The carboxylate group was then activated by EDC and stabilized with NHS. Mu receptor protein displaced the NHS to form an amide bond.
# The graphene transistor was functionalized by incubation at 55° C. in a water solution of carboxylated diazonium salt (2.0 mg/mL in DI water). Carboxylic acid groups from the diazonium functionalization were activated and stabilized with 1-ethyl-3-[3-dimethylaminopropyl]carbodiimide hydrochloride/sulfo-Nhydroxysuccinimide (EDC/NHS) at an EDC concentration of 9 mg/15 mL MES buffer and NHS concentration of 20 mg/15 mL MES buffer. NHS molecules were displaced by Mu receptor proteins (3 micrograms/mL) in buffer (40 microM NaPi/260 microM NaCl/0.00004% SDS/10 microM 2-ME/pH 7.0), forming a covalent amide bond between the protein and the graphene. The devices were then electrically characterized and then their sensitivity to opioid exposure was measured.
# The source-drain current value is at a minimum at the gate voltage value at which conductance is at a minimum. The increase in Dirac voltage was defined as the sensing response (change in signal, i.e. electronic characteristic) for this ligand. […] The inset is a magnified view of this shift in the Dirac voltage.
# Each concentration was tested against 15-30 devices. […]
# [1] = Secondary structure content by circular dichroism; assay type: physicochemical
# Excerpt: The CD spectra indicated predominantly helical structures with a helical secondary structure content of ˜48% (estimations based on the molar ellipticity over the range 205 to 260 nm). The comparison of the helical content with that of the native human MUR expressed in yeast system in the presence of high concentration of detergent (0.1% SDS) is presented in Table 1.
# mu-receptor protein = experiment: Raman spectroscopy optical readout of ligand binding on mu-receptor-protein-functionalized GFET; parameters: species or system human
# Excerpt: Raman spectroscopy of the graphene layer in a functionalized GFET was used as an optical readout method to detect ligand binding. […]
# A similar shift is seen in the 2D peak in FIG. 8c. No shifts were seen after exposure to pure buffer as a negative control, in FIGS. 8d and 8e.
# [2] = Thermostability by circular dichroism; conditions: 5 mM sodium phosphate; for melting point (CD thermostability): 0.01% SDS, pH=7.0
# Method: The secondary structure of the water-soluble variant was determined through circular dichroism (CD). Circular dichroism (CD) spectra were recorded by using CD Spectrometer (Chirascan, AppliedPhotophysics Limited, Leatherhead, United Kingdom) with a scan speed of 1 nm/s and 1 mm path length. Corresponding blanks were used for calibration for each assay and subtracted from raw data. Two data sets were recorded and averaged to increase the signal-to-noise ratio. The CDNN CD spectra deconvolution software was utilized to determine the secondary structure content of the proteins. […] Absorbance was maintained lower than 1.0 to ensure sufficient light transmission. The temperature-dependence curve was plotted using GraphPad Prism® (version 5, GraphPad Software, Inc. La Jolla).
# [3] = Effects of denaturant (urea) and reducing agent (2-ME) by CD and intrinsic tryptophan fluorescence; assay type: physicochemical; conditions: normalized to no denaturant
# Method: CD and intrinsic tryptophan fluorescence were used to probe disulfide bond formation in the water-soluble variant. […] Even in 8 M urea, the protein retains some helical structure (Table 2). Upon addition of 2-ME, both the molar ellipticity and fluorescence further decreased, becoming more pronounced at the higher concentration of the reducing agent (200 mM). Thus the presence of an intramolecular disulfide bond is corroborated in the case of wsMUR-TM.
# [4] = test system: human μ opioid receptor expressed in HEK293 cells; experiment: Competitive TR-FRET (HTRF) binding competition assay with native MUR and naltrexone-derived fluorescent antagonist; conditions: methodology described for FIG. 16
# Excerpt: FIG. 16. […] Data is used to calculate HTRF ratios, and represent the mean±standard error of mean of quadruplicates. ΔF is used for the comparison of different runs of the same assay which reflects the signal to background of the assay. ΔF=[(Ratiosample−Ratiobackgroud)/Ratiobackgroud](%).
# A recently developed methodology which uses a fluorescently labeled ligand and the native MUR was used to investigate the ligand-binding capabilities of the water-soluble receptors.
# [5] = pH 7.0 + 0.1% SDS, expressed in yeast system
# mu receptor protein, sequence (P35372 whole entry, looked up): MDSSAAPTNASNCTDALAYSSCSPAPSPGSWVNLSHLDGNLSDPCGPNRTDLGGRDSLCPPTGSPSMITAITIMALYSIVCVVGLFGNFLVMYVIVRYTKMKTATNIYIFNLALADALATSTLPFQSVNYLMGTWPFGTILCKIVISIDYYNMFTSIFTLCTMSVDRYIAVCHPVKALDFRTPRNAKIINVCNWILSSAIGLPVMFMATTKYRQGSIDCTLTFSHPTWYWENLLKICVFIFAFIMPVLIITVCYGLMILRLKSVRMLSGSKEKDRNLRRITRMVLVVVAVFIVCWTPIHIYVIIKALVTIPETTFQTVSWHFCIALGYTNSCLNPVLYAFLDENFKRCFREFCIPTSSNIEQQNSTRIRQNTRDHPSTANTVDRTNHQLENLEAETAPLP
molecule,measurement,setting,value
CCOC(=O)c1ncn2c1CN(C)C(=O)c1cc(F)ccc1-2 [Flumazenil],sensor response (Dirac voltage shift),mu receptor protein,−0.2±0.4 V
"Native MUR: native human μ receptor expressed in yeast system, in 0.1% SDS [reference compound]",Helix content (CD 205-260 nm),[1]; [5],40.6%
same,Others content (CD 205-260 nm),[1]; [5],40.5%
same,Turn content (CD 205-260 nm),[1]; [5],18.9%
O=C1CC[C@@]2(O)[C@H]3Cc4ccc(O)c5c4[C@@]2(CCN3CC2CC2)[C@H]1O5 [naltrexone],Average 2D peak position after analyte,mu-receptor protein; 10 ng/mL,2683.19 ± 0.20
same,Average G peak position after analyte,mu-receptor protein; 10 ng/mL,1591.61 ± 0.13
same,Average 2D peak position after analyte,mu-receptor protein; 10 micrograms/mL,2685.83 ± 0.26
same,Average G peak position after analyte,mu-receptor protein; 10 micrograms/mL,1594.39 ± 0.15
wsMUR-TM: transmembrane-only water-soluble human mu receptor variant (protein) SMITAIKIHEEYKKVCEEGKKGNKLVMEVIVRYTKMKTATNIYIFNLAKADALAESTLPFQSVNKLMGTWPFGTILCKKVISIDYYNMFTSIFTLCTMSVDRYIAVCHPVKALDFRTPRNAKEENEKNWKLSSEIGKPVEKKATTKYRQGSIDCTLTFSHPTWYWEDKLKDEVFKKAFEEPVKKIKECYGLMILRLKSVRMLSGSKEKDRNLRRITRMVLVVVEVFIKCWTEIHKYVKEGKLVTIPETTFQTVSWHECIAKGYKNSCENPKLYEELDENFKRCFREFC,Helix content (CD 205-260 nm),[1]; pH 7.0 in NaHPO4,48.0%
same,Others content (CD 205-260 nm),[1]; pH 7.0 in NaHPO4,37.4%
same,Turn content (CD 205-260 nm),[1]; pH 7.0 in NaHPO4,14.6%
same,temperature at which ellipticity (222 nm) starts to be lost significantly,"[2]; pH=7.0, 10 to 90° C.",~62 °C
same,melting point (CD thermostability),[2]; absence of cholesterol,82.9 °C
same,melting point (CD thermostability),[2]; presence of cholesterol,89.3 °C
same,Fluorescence Peak Intensity (%; 300-350 nm),[3]; Urea (8M) 2-ME (25 mM),23.9%
same,Molar Ellipticity (%; 222 nm),[3]; Urea (8M) 2-ME (25 mM),25.1%
same,Fluorescence Peak Intensity (%; 300-350 nm),[3]; Urea (8M) 2-ME (200 mM),4.5%
same,Molar Ellipticity (%; 222 nm),[3]; Urea (8M) 2-ME (200 mM),0.0%
same,Fluorescence Peak Intensity (%; 300-350 nm),[3]; Urea (8M),28.4%
same,Molar Ellipticity (%; 222 nm),[3]; Urea (8M),40.0%
wsMUR-TM+7mut: second wsMUR recombinant protein (protein) SMITAIKILEEYKKVCEEGRKGNKLVMEVIVRYTKMKTATNIYIFNLAKADALAESTLPFQSVNKLMGTWPFGTILCKKVISIDYYNMFTSIFTLCTMSVDRYIAVCHPVKALDFRTPRNAKEHNEKNWKLSSEIGKPVEKRATTKYRQGSIDCTLTFSHPTWYWEDKLKDTVFKKAFEEPVKVIKECYGLMILRLKSVRMLSGSKEKDRNLRRITRMVLVVVEVFIKCWTEIHKYVKEGKL,binding activity / affinity with naltrexone,[4],binding activity was also observed

# Source: US10809222B2, “Opioid detection based on high quality graphene transistor arrays and a synthetic mu receptor” (priority 2013, dated 2020)
